Source: article PMC5897525 (2018)

Assays:
[1] = target: recombinant Fel d 1 produced with a myc-myc-hexahistidine tag (rFel d 1.mmh) (cat, UniProt P30440-1 18-109; P30438 23-92); assay: SPR; 25°C
[2] = target: rFel d 1.mFc; assay: SPR; 25°C; dimeric

Sequence of recombinant Fel d 1 produced with a myc-myc-hexahistidine tag (rFel d 1.mmh) (P30440 other isoform, or with tags, fused parts or gaps): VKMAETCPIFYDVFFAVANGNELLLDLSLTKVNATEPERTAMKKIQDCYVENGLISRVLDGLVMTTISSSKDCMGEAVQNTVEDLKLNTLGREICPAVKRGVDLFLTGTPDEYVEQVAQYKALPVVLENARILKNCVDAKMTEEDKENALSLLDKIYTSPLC

- Kd [1]: 0.912 nM
- Kd [2]: 0.0978 nM
B1: REGN1909 (antibody, V domains shown)
VH: EVQLVESGGGLVQPGGSLRLSCAASGFTFSSYAMSWVRQAPGKGLEWVSAISGRGYNADYADSVKGRFTISRDNSKNTLYLQMNSLRAEDTAVYYCAKLEYFDYWGQGTLVTVSS
VL: DIQMTQSPSTLSASVGDRVTITCRASQSISSWLAWYQQKPGKAPKLLIYKASSLESGVPSRFSGSGSGTDFTLTISSLRPEDFATYYCQQYNSYPLTFGGGTKVEIK
